The values below come from US20250032632A1 (published 2025).

The target of test [1] is human cMET-Fc fusion protein (extracellular domain of human cMET fused to human Fc) (human) (UniProt P08581). The experiment in a line: SPR with hMet-Fc.
The target in test [2] is T1, human cMET-Fc fusion protein (extracellular domain of human cMET fused to human Fc) (human, UniProt P08581 25-932).
T1 construct: Mature cMET is cleaved into alpha and beta subunits; also called hMET-Fc; hMet-Fc
Kind of test: SPR, hMET-Fc. (In SPR one partner is held on a chip, and binding of the other changes the refractive index at the surface.)

The target of another test is T2, rat cMET-Fc (rat, UniProt P97523 25-935).
T2 construct: Construct named only as rMET-Fc; also called rMET-Fc; not shown: Fc part
T2 sequence (P97523 25-935 limits assumed): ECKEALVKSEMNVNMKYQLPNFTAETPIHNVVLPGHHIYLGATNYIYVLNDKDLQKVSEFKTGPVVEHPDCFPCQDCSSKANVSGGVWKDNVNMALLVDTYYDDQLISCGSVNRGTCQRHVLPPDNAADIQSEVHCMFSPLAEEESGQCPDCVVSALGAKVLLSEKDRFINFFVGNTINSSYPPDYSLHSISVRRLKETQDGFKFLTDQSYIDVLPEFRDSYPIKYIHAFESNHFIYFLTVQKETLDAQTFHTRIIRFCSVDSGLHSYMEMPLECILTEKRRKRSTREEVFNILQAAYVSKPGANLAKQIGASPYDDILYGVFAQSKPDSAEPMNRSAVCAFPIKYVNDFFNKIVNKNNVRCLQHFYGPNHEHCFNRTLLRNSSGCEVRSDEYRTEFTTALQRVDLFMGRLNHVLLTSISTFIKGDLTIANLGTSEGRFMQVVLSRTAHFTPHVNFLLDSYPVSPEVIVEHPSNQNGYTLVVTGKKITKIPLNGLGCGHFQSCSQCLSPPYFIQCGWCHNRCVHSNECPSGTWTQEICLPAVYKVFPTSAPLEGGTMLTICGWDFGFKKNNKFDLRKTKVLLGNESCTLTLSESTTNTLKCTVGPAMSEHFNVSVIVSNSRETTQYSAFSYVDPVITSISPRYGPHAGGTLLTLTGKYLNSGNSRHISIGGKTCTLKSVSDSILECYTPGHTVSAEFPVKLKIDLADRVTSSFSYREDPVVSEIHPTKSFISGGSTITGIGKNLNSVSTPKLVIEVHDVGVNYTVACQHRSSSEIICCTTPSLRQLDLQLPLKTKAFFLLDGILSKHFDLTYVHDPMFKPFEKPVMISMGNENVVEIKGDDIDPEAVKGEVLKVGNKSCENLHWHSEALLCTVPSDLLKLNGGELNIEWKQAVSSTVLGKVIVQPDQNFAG
The experiment in a line: SPR, rMET-Fc.

Test [3] deals with T1, human cMET-Fc fusion protein …. Kind of test: SPR with hMet-Fc.
The target in test [4] is mouse cMET (ELISA antigen) (mouse, UniProt P16056 25-931, limits assumed). The experiment in a line: ELISA, cross-reactivity, mouse cMET. On the technique in general: ELISA stands for enzyme-linked immunosorbent assay.
Sequence of mouse cMET (ELISA antigen) (P16056 25-931 limits assumed): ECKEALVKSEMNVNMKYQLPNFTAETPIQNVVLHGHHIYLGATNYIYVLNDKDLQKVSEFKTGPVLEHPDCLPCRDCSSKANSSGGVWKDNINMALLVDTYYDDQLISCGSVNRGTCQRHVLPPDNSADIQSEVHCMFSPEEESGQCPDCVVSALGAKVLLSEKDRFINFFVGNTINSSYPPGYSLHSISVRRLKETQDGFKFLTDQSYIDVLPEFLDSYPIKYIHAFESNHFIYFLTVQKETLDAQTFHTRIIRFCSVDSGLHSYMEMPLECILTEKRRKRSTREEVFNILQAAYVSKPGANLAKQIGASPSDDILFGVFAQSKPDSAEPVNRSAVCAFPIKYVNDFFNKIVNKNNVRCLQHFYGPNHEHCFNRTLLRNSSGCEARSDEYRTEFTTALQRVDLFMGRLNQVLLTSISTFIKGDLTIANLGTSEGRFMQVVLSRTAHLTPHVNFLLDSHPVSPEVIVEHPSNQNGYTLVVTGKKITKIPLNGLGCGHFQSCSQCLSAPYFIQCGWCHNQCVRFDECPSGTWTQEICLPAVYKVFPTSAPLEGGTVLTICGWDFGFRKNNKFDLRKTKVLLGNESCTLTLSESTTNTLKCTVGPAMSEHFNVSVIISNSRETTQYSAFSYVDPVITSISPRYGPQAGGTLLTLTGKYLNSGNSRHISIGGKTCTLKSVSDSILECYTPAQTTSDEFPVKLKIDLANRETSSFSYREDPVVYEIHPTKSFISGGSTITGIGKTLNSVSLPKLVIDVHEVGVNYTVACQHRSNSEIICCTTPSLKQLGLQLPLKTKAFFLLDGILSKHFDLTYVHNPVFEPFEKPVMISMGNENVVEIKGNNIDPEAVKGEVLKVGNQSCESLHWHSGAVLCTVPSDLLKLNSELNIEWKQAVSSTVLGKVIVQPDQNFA
For test [5], the target named is T3, rat cMET (ELISA antigen) (rat, UniProt P97523 25-935, limits assumed).
T3 construct: also called rMET
T3 sequence (P97523 25-935 limits assumed): as the sequence (P97523 25-935 limits assumed) above
Kind of test: ELISA on rat cMET, relative to parental P3D12.

For test [6], the target named is T4, human cMET (ELISA antigen) (human, UniProt P08581 25-932, limits assumed).
T4 construct: also called hMET
T4 sequence (P08581 25-932 limits assumed): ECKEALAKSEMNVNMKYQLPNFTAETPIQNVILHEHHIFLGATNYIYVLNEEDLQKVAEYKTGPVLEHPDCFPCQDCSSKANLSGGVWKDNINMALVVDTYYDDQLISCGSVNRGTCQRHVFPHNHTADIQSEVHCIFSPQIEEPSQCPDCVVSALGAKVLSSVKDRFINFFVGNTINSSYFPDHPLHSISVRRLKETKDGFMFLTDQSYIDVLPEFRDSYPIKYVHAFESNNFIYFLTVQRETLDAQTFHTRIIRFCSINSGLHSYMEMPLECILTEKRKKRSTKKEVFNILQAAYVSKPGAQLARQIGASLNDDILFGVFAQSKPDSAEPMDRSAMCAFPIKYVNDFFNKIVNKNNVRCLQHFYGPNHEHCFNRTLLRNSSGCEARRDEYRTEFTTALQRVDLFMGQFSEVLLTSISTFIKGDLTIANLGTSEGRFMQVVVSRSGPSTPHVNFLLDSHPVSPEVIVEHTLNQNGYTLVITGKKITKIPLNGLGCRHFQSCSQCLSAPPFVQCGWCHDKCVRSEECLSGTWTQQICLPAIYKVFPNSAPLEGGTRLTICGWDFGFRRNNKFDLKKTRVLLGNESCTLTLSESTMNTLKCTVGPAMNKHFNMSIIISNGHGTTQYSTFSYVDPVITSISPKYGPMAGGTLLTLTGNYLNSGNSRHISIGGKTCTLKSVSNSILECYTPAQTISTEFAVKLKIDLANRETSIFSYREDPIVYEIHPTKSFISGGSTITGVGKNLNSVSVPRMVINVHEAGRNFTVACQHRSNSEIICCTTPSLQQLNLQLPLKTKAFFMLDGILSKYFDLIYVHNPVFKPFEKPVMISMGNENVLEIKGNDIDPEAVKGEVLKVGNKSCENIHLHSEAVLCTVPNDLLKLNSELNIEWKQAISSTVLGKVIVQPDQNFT
The experiment in a line: ELISA on human cMET, relative to parental P3D12.

Test [7] has as its target T5, mutant cMET (E168D) Fc recombinant fusion protein (human, UniProt P08581 25-932).
T5 construct: also called E168D cMET; E168D cMET extracellular domain fused to human IgG1 Fc; not shown: Fc of human IgG1
The experiment in a line: binding ELISA, plate-coated E168D cMET-Fc, goat anti-human IgG (H+L)-HRP (FIG. 16). On the procedure: The E168D mutation is a somatic mutation found in small cell lung cancer (SCLC). The mutation is located in the Sema domain and leads to constitutive activation of the cMET receptor. Abundance of somatic mutations of cMET are very low. E168D occurs in 0.8% to 3% of SCLC patients. A binding ELISA was performed with human cMET or E168D cMET extracellular domains fused to human IgG1 Fc. cMET proteins were coated on a plate overnight and the samples titrated and detected with a goat anti-human IgG (H+L)-HRP. EC₅₀s were determined using sigmoidal dose response fit.

The target in test [8] is T6, Recombinant Human c-Met-10X His (human, UniProt P08581 25-932).
T6 construct: In-house reagent (Lot #140924TA); not shown: 10X His tag
T6 sequence (P08581 25-932 limits assumed): as above
The experiment in a line: ELISA, plate-bound human cMET (FIGS. 17A, 17B). The source says: Relative binding strength is indicated by luminescence (y-axis).

The target of test [9] is T6, Recombinant Human c-Met-10X His. Kind of test: cMET binding ELISA, plate-bound human cMET (FIGS. 24A, 24B). On the procedure: The antibody drug conjugates were tested at increasing concentrations (x-axis, concentration of antibody-drug conjugate (μg/ml)) for their ability to bind plate-bound human cMET. Relative binding strength is indicated by luminescence (y-axis).
PMID: 5257969. The payload of chemical formula II was site-specifically conjugated to each of the mutated cysteine residues using Maleimide chemistry. The quality and extent of conjugation was assessed by a determination of total recovery, aggregate content, monomer content and drug-antibody ratio (DAR).

The target of test [10] is T3, rat cMET (ELISA antigen). Kind of test: ELISA, cross-reactivity, rat cMET.

T1 sequence (P08581 25-932): as the sequence (P08581 25-932 limits assumed) above
T5 sequence (P08581 25-932 E168D): as the sequence (P08581 25-932 limits assumed) above, with E144D counted along it
Sequence of human cMET-Fc fusion protein (extracellular domain of human cMET fused to human Fc) (human) (P08581 25-932): as the sequence (P08581 25-932 limits assumed) above

A word on the Kd: it is a measure of binding affinity in units of concentration. Regarding 5D5 (antibody), in [1], the Kd came to 0.8 nM.

B1: F6B1P3D12 (mouse monoclonal anti-cMET antibody) (antibody, V domains shown)
VH: QVQLQQSGAELAKPGASVKMSCRASGYTFTSYWMHWVKQRPGQGLDWIGYIKPSTDNTEYNQKFKDKATLTADKSSSTAYMQLSSLTSEDSAVYYCARSYGNYPLMDYWGQGTSVTVSS
VL: QIVLTQSPAIMSASPGEKVTLTCSASSSVTSNYLYWYQQKPGSSPKLWIYSTSNLASGVPARFSGSGSGTSYSLTISSMEAEDAASYFCHQWSSYPPTFGSGTKLEIKR
notes: Mouse hybridoma antibody (ATCC PTA-125826); also called Mouse P3D12
As to B1, the Kd stood at 0.9 nM in [2], 16 nM with rat cMET-Fc and 0.75 nM in test [3]. The binding result in [4] was “no binding”.

B2: F6BP2D4 (antibody, V domains shown)
VH: QVQLQQSGAELAKPGASVKMSCKASGYTFTSYWMHWVKQRPGQGLEWIGYINPSTDYIEYNQKFKDKATLTAGKSSSTAYMQLSSLTSEDSAVYYCARSYGNFPLMDYWGQGTSVTVSS
VL: QIVLTQSPAIMSASPGEKVTLTCSASSSVSSNYLYWYQQKPGSSPKLWIYSTSNLASGVPVRFSGSGSGTSYSLTISSMEAEDAASYFCHQWSSYPPTFGSGTKLEIKR
notes: Mouse monoclonal antibody
As to B2, the Kd in test [3] came to 0.48 nM. In addition, in test [4], the binding result is reported as “no binding”.

B3: F6B1P1E2 (antibody, V domains shown)
VH: QVQLQQSGAELAKPGASVKMSCKASGYTFTSYWMHWVKQRPGQGLEWIGYINPSTDYTEYNQKFKDKATLTADKSSTTAYMQLSSLTSEDSAVYYCVRSYGNYPLMDYWGQGTSVTVSS
VL: QIVLTQSPAIMSASPGEKVTLTCSASSSVSSNYLYWYHQKPGSSPKLWIYSTSNLASGVPVRFSGSGSGTSYSLTISSMEAEDAASYFCHQWSSYPPTFGSGTKLEIKR
notes: Mouse monoclonal antibody
The molecule B3 had a Kd in test [3] of 0.89 nM. In addition, the binding result in [4] is “no binding”.

B4: hD12 (humanized anti-cMET antibody of IgG2 isotype, VH-cdr SEQ ID NO: 108 + VL-fra SEQ ID NO: 47) (antibody)
heavy: QVQLVQSGAEVKKPGASVKVSCKASGYTFTSYWMHWVKQAPGQGLDWIGYIKPSTDNTEYNQKFKDKATLTADKSTSTAYMELSSLRSEDTAVYYCARSYGNYPLMDYWGQGTTVTVSSASTKGPSVFPLAPCSRSTSESTAALGCLVKDYFPEPVTVSWNSGALTSGVHTFPAVLQSSGLYSLSSVVTVPSSNFGTQTYTCNVDHKPSNTKVDKTVERKCCVECPPCPAPPVAGPSVFLFPPKPKDTLMISRTPEVTCVVVDVSHEDPEVQFNWYVDGVEVHNAKTKPREEQFNSTFRVVSVLTVVHQDWLNGKEYKCKVSNKGLPAPIEKTISKTKGQPREPQVYTLPPSREEMTKNQVSLTCLVKGFYPSDIAVEWESNGQPENNYKTTPPMLDSDGSFFLYSKLTVDKSRWQQGNVFSCSVMHEALHNHYTQKSLSLSPGK
light: QIVLTQSPAILSLSPGERATLSCSASSSVTSNYLYWYQQKPGSSPKLLIYSTSNLASGVPARFSGSGSGTSYTLTISSLEAEDAASYFCHQWSSYPPTFGSGTKLEIKRTVAAPSVFIFPPSDEQLKSGTASVVCLLNNFYPREAKVQWKVDNALQSGNSQESVTEQDSKDSTYSLSSTLTLSKADYEKHKVYACEVTHQGLSSPVTKSFNRGEC
notes: also called G2ckf
As for B4, the Kd worked out at 0.3 nM in test [2] and 7 nM with rat cMET-Fc. Also, the “ELISA rMET vs parental” value in the test with rat cMET (ELISA antigen) [5] was determined as 0.9 fold vs parental. Moreover, in test [6], the “ELISA hMET vs parental” value stood at 0.7 fold vs parental. In addition, in test [7], the binding result is recorded as “binds”.

B5: hD12-VII (Antibody hD12 attached to the payload of chemical formula VII, stochastic conjugation) (antibody, human IgG2, kappa)
heavy: QVQLVQSGAEVKKPGASVKVSCKASGYTFTSYWMHWVKQAPGQGLDWIGYIKPSTDNTEYNQKFKDKATLTADKSTSTAYMELSSLRSEDTAVYYCARSYGNYPLMDYWGQGTTVTVSSASTKGPSVFPLAPCSRSTSESTAALGCLVKDYFPEPVTVSWNSGALTSGVHTFPAVLQSSGLYSLSSVVTVPSSNFGTQTYTCNVDHKPSNTKVDKTVERKCCVECPPCPAPPVAGPSVFLFPPKPKDTLMISRTPEVTCVVVDVSHEDPEVQFNWYVDGVEVHNAKTKPREEQFNSTFRVVSVLTVVHQDWLNGKEYKCKVSNKGLPAPIEKTISKTKGQPREPQVYTLPPSREEMTKNQVSLTCLVKGFYPSDIAVEWESNGQPENNYKTTPPMLDSDGSFFLYSKLTVDKSRWQQGNVFSCSVMHEALHNHYTQKSLSLSPGK
light: QIVLTQSPAILSLSPGERATLSCSASSSVTSNYLYWYQQKPGSSPKLLIYSTSNLASGVPARFSGSGSGTSYTLTISSLEAEDAASYFCHQWSSYPPTFGSGTKLEIKRTVAAPSVFIFPPSDEQLKSGTASVVCLLNNFYPREAKVQWKVDNALQSGNSQESVTEQDSKDSTYSLSSTLTLSKADYEKHKVYACEVTHQGLSSPVTKSFNRGEC
modifications: payload of chemical formula VII on one or more cysteine residues of the antibody at random positions (chain not stated); payload of chemical formula VII (pyrrolobenzodiazepine toxin + linking group, maleimide) on one or more cysteine residues of the antibody at random positions
notes: Antibody-drug conjugate; also called hD12-vc-VII
For the molecule B5, in test [8], the binding result is “binds”.

B6: hD12-XI (Antibody hD12 attached to the payload of chemical formula XI, stochastic conjugation) (antibody, human IgG2, kappa)
heavy: QVQLVQSGAEVKKPGASVKVSCKASGYTFTSYWMHWVKQAPGQGLDWIGYIKPSTDNTEYNQKFKDKATLTADKSTSTAYMELSSLRSEDTAVYYCARSYGNYPLMDYWGQGTTVTVSSASTKGPSVFPLAPCSRSTSESTAALGCLVKDYFPEPVTVSWNSGALTSGVHTFPAVLQSSGLYSLSSVVTVPSSNFGTQTYTCNVDHKPSNTKVDKTVERKCCVECPPCPAPPVAGPSVFLFPPKPKDTLMISRTPEVTCVVVDVSHEDPEVQFNWYVDGVEVHNAKTKPREEQFNSTFRVVSVLTVVHQDWLNGKEYKCKVSNKGLPAPIEKTISKTKGQPREPQVYTLPPSREEMTKNQVSLTCLVKGFYPSDIAVEWESNGQPENNYKTTPPMLDSDGSFFLYSKLTVDKSRWQQGNVFSCSVMHEALHNHYTQKSLSLSPGK
light: QIVLTQSPAILSLSPGERATLSCSASSSVTSNYLYWYQQKPGSSPKLLIYSTSNLASGVPARFSGSGSGTSYTLTISSLEAEDAASYFCHQWSSYPPTFGSGTKLEIKRTVAAPSVFIFPPSDEQLKSGTASVVCLLNNFYPREAKVQWKVDNALQSGNSQESVTEQDSKDSTYSLSSTLTLSKADYEKHKVYACEVTHQGLSSPVTKSFNRGEC
modifications: payload of chemical formula XI on one or more cysteine residues of the antibody at random positions (chain not stated); payload of chemical formula XI (pyrrolobenzodiazepine toxin + linking group, maleimide) on one or more cysteine residues of the antibody at random positions
notes: Antibody-drug conjugate; also called hD12-vc-XI
For B6, the binding result in test [8] is recorded as “binds”.

B7: hD12-T289C-II (hD12 T289C variant site-specifically conjugated to the payload of chemical formula II) (antibody, human IgG2, kappa)
heavy: QVQLVQSGAEVKKPGASVKVSCKASGYTFTSYWMHWVKQAPGQGLDWIGYIKPSTDNTEYNQKFKDKATLTADKSTSTAYMELSSLRSEDTAVYYCARSYGNYPLMDYWGQGTTVTVSSASTKGPSVFPLAPCSRSTSESTAALGCLVKDYFPEPVTVSWNSGALTSGVHTFPAVLQSSGLYSLSSVVTVPSSNFGTQTYTCNVDHKPSNTKVDKTVERKCCVECPPCPAPPVAGPSVFLFPPKPKDTLMISRTPEVTCVVVDVSHEDPEVQFNWYVDGVEVHNAKCKPREEQFNSTFRVVSVLTVVHQDWLNGKEYKCKVSNKGLPAPIEKTISKTKGQPREPQVYTLPPSREEMTKNQVSLTCLVKGFYPSDIAVEWESNGQPENNYKTTPPMLDSDGSFFLYSKLTVDKSRWQQGNVFSCSVMHEALHNHYTQKSLSLSPGK
light: QIVLTQSPAILSLSPGERATLSCSASSSVTSNYLYWYQQKPGSSPKLLIYSTSNLASGVPARFSGSGSGTSYTLTISSLEAEDAASYFCHQWSSYPPTFGSGTKLEIKRTVAAPSVFIFPPSDEQLKSGTASVVCLLNNFYPREAKVQWKVDNALQSGNSQESVTEQDSKDSTYSLSSTLTLSKADYEKHKVYACEVTHQGLSSPVTKSFNRGEC
modifications: payload of chemical formula II on Cys 289 (EU numbering), maleimide chemistry
notes: Antibody-drug conjugate, IgG2
For the molecule B7, in test [9], the binding result is listed as “binds”.

B8: F5P5B9 (antibody, V domains shown)
VH: QVQLKESGPGLVAPSQSLSITCTVSGFSLTNYGVNWVRQPPGKGLEWLGLIWGGGDTDYNSALKSRLSISKDNSKSQVFLKMETNSLQTDDTARYYCARDYYGFDYWGQGTTLTVSS
VL: DVLMTQTPLSLPVSLGDQASISCRSSQTIVHGTGNTYLEWYLQKPGQSPKLLIYKVSNRFSGVPDRFSGSGSGTDFTLKISRVEAEDLGVYYCFQGSHVPYTFGGGTKLEIKR
notes: Mouse monoclonal antibody
As for B8, the binding result (with rat cMET (ELISA antigen) [10]; in test [4]) was “no binding” in each case.

B9: F6AP8E2 (antibody, V domains shown)
VH: EVQLQQSGAELVRPGALVKLSCKASGFNINDYFMHWVKQRPEQGLEWIGWIDPENGNTIYDPKFQGKASITADTSSNTAYLQLSSLTSEDTAVYYCARGGNYLRESYYYAMDYWGQGTSVTVSS
VL: DIVMTQSPKSMSMSVGERVTLSCKASENVGTYVSWYQQKPDQSPKLLIYGASNRYTGVPDRFTGSGSATDFTLTISSVQAEDLADYHCGQSYSYPLTFGAGTKLELKR
notes: Mouse monoclonal antibody
Molecule B9 had a Kd in test [3] of 0.16 nM. Further, the binding result (with rat cMET (ELISA antigen) [10]; in test [4]) was “no binding” in each case.
